Experimental data: PMC12096439, “Ion-DNA Interactions as a Key Determinant of Uracil DNA Glycosylase Activity”

Biological target: UNG2-Fluor (human, UniProt P13051 =C+1-313, C141A;C166A;C290A;internal_change)
Experiment: fluorescence quenching titration; 1 mM MgCl2; 10 mM Tris-Cl, 0.1 mM EDTA, pH 8.0, 2 mM NaCl carry-over, MgCl2 varied, 22 C, 50 nM UNG2-Fluor; ex 495 nm, em 520 nm
Conditions: protein: recombinant; tags: N-terminal fluorescein (maleimide on added Cys); label: 5' Iowa Black FQ; single strand

Sequence of UNG2-Fluor (P13051 other isoform, or with tags, fused parts or gaps C141A;C166A;C290A;): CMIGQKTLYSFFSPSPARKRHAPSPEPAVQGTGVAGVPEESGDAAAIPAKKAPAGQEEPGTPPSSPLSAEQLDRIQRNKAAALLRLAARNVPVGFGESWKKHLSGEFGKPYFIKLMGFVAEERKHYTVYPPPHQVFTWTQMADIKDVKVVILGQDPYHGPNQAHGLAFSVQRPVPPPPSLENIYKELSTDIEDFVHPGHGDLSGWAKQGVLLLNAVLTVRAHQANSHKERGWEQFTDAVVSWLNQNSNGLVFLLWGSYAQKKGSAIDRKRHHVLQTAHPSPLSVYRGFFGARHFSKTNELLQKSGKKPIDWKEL

| Binder | Kd [nM] |
| --- | --- |
| CGATAG (ssDNA) [6 nt dark quencher ssDNA] | 1000 |
| TCAGGTGAATCGATAGCTAAGAGCATG (ssDNA) [27 nt dark quencher ssDNA] | 3 |
